Biological target: mouse CBP TAZ1 (residues 340-439) (mouse, UniProt P45481 340-439)
Assay: ITC; MicroCal VP-ITC; E2F4 TAD (300 uM) titrated into TAZ1 (30 uM) at 25 C; 25 mM HEPES pH 7.0, 200 mM NaCl, 5% glycerol v/v; E2F4 concentration adjusted such that N was close to 1
Conditions: both partners purified

mouse CBP TAZ1 (residues 340-439), sequence (P45481 340-439): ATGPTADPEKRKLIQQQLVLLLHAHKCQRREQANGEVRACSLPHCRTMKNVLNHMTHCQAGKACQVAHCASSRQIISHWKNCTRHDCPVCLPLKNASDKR

binding result: binds
B1: human E2F4 transactivation domain (residues 390-407) (domain or fragment, UniProt Q16254 390-407, looked up)
chain: HDYIYNLDESEGVCDLFD
notes: also called E2F4 TAD; E2F4 peptide; source: E. coli, purified (GST fusion, Superdex-75)
